In patent US11453711B2, “Fusion proteins of GLP-1 and GDF15 and conjugates thereof” (BEIJING QL BIOPHARMACEUTICAL CO., LTD., priority 2019, dated 2022):

Legend:
[1] = Body weight and food intake in C57BL/6 mice, unconjugated fusion proteins, 30 nmol/kg daily 10 days; assay type: in vivo; settings: for Body weight reduction at 30 nmol/kg (% reduction compared to vehicle)(Day11) / Cumulative food intake reduction at 30 nmol/kg (% reduction compared to vehicle)(Day11): C57 mice, 30 nmol/kg daily, Day11, unconjugated fusion proteins
Method: (§1) 10 week old male C57BL/6 mice were injected everyday subcutaneously with 15 nmol/kg of the fusion protein conjugates (i.e., MLC002, MLC 004, MLC 005, MLC 006, MLC 007, MLC 008, and MLC 009) for 14 days. Food intake and body weight were measured daily and five animals were used for each treatment group. Body weight (BW) was monitored for each individual animal, but food intake for each group animals was measured together. Day 1 and Day 14 are first day and last day of molecule dosage. % BW loss=100*(BW on Day n-BW on Day 1)/(BW on Day 1). Cumulative food intake on Day n represents sum of food intake from Day 1 to Day n. Data are indicated as mean values and standard error (SEM) or pooled values. Statistical analysis was performed by One-way ANOVA. Body weight reduction on Day 11 is calculated by −1*(% BW loss−% BW loss of vehicle group); Cumulative food intake reduction is calculated by −100*(cumulative food intake-cumulative food intake of vehicle)/cumulative food intake of vehicle.
As described in the above method, a daily dose of 30 nmol/kg of the unconjugated fusion proteins (i.e., MLC100, MLC023, MLC022, MLC020, MLC003, MLC124, MLC021, MLC019, MLC102) were administered to C57BL/6 for 10 days. Data were calculated as above method. Day 1 and Day 10 are first day and last day of administration.

[2] = Pharmacokinetic measurement in mouse, single sc dose 30 nmol/kg, plasma ELISA; settings: for Cmax: read-out: Cmax (nmol/L), single sc dose 30 nmol/kg; for exposure (Cmax and AUC) / half-life (T1/2): single sc 30 nmol/kg, in words; for AUC0-24 h / Terminal t1/2 / Tmax: single sc dose 30 nmol/kg
[3] = Efficacy in db/db mice: body weight, food intake, glucose, biomarkers, daily sc 14 days; assay type: in vivo
Method: (§2) FIGS. 4A-4D show In vivo efficacy in db/db mice. To evaluate the body weight, food intake and glucose effects of the fusion proteins, 8 week old male db/db mice were dosed everyday subcutaneously with 30 nmol/kg protein for 14 days. […] Compared to Vehicle control: ***, p<0.001. Data are expressed as mean values and standard error (SEM) for FIGS. 4A, 4B and 4D. n=5 for each treatment group. For FIG. 4C, a pooled food intake was measured for each treatment group.
FIGS. 5A-5F show In vivo efficacy in db/db mice. To evaluate the body weight, food intake and glucose effects of the fusion proteins, 8 week old male db/db mice were dosed everyday subcutaneously with different concentrations of proteins for 14 days. FIGS. 5A and 5B show body weight loss upon protein treatments from Day1 to Day15. […] Compared to Vehicle control: ***, p<0.001; **, p<0.01; *, p<0.05; ns, non-statistically significant; FIGS. 5D and 5E show cumulative food intake with protein treatments from Day1 to Day15. […] Compared to Vehicle control: ***, p<0.001**, p<0.01; *, p<0.05; ns, non-statistically significant. Data are expressed as mean values and standard error (SEM) for FIGS. 5A, 5B, 5C and 5F. n=5 for each treatment group. For FIGS. 5D and 5E, a pooled food intake was measured for each treatment group.
as §2, with “8A-8I” for “4A-4D”, “different concentrations of proteins” for “30 nmol/kg protein”, “FIGS. 8D-8F show body weight loss upon dose titrations of fusion protein conjugates. […]” for “Compared to Vehicle control: ***, p<0.001.”, “8A” for “4A, 4B”, “8C-I.” for “4D.”, “8B,” for “4C,”
Selected fusion protein conjugates are assessed in disease animal models (DIO mice, db/db mice, etc.) to determine body weight, food intake, glucose efficacy with dose responses. Some biomarkers are also measured, including fasting insulin, plasma triglyceride, cholesterol, liver triglyceride, and inflammatory biomarkers (ALT, AST and CRP).
8 week old male db/db mice were injected everyday subcutaneously with designated proteins for 14 days. Age matched lean mice were used as control. Food intake and body weight were measured daily and five animals were used for each treatment group. Fasting glucose were tested on designated days as shown in each figure. Body weight was monitored for each individual animal, but food intake for each group animals was measured together. Day 1 and Day 14 are first day and last day of molecule dosage. % BW loss=100*(BW on Day n-BW on Day 1)/(BW on Day 1). Cumulative food intake on Day n represents sum of food intake from Day 1 to Day n. Terminal blood was collected and EDTA-2K plasma was prepared and frozen at −80° C. for biomarker measurement. Liver was also collected and frozen in liquid nitrogen and store at −80° C. Data are indicated as mean values and standard error (SEM) or pooled values. Statistical analysis was performed by One-way ANOVA.

[4] = PK study in non-human primates, single sc dose 5 nmol/kg, plasma ELISA; settings: monkey, single sc dose 5 nmol/kg
Method: Plasma samples were collected pre-dose (−5 min), 2 hr, 4 hr, 6 hr, 8 hr, 24 hr, 48 hr, 72 hr, 96 hr, 120 hr, 144 hr, 216 hr, 288 hr, 360 hr, 432 hr and 504 hr after the injection. The concentrations of the fusion protein conjugates in the plasma were measured by an ELISA assay which has immunoreactivity towards both GDF15 and intact N-terminal of GLP-1. Based on the graph showing plasma concentration of each protein versus time after subcutaneous injection, the pharmacokinetic parameters (including Tmax, Cmax, T1/2, AUC) were calculated by WinNonlin software.

[5] = Body weight and food intake in C57BL/6 mice, fusion protein conjugates, 30 nmol/kg daily 10 days; assay type: in vivo
Method: as §1
Data were calculated in the same way as described above. Day 1 and Day 10 are first day and last day of the administration.
MLC014 was used as a negative control. MLC014 has an amino acid sequence of SEQ ID NO: 261, which contains a linker fused to the N terminal of GDF15, with a CRM conjugated to the lysine residue in the linker. Tirzepatide was also used as a control.

[6] = 30 nmol/kg, FIG. 8A-C, versus Semaglutide, Tirzepatide and MLC014

B1: MLC023: unconjugated GLP-1/GDF15 fusion protein (protein)
chain: HGEGTFTSDVSSYLEEQAAKEFIAWLVRGGGGQEPGQEPGQEPARQGDHCPLGPGRCCRLHTVRASLEDLGWADWVLSPREVQVTMCIGACPSQFRAANLHAQIKTSLHRLKPDTVPAPCCVPASYNPMVLIQKTDTGVSLQTYDDLLAKDCHCI
With B1 the “Body weight reduction at 30 nmol/kg (% reduction compared to vehicle)(Day11)” value [1] was 12.5% and the “Cumulative food intake reduction at 30 nmol/kg (% reduction compared to vehicle)(Day11)” value [1] was 31.7%.

B2: MLC003: unconjugated GLP-1/GDF15 fusion protein (protein)
chain: HGEGTFTSDVSSYLEEQAAKEFIAWLVRGGGGQEPGQEPGQEPGQEPGQEPGQEPGQEPGQEPGAQPGAQPARQGDHCPLGPGRCCRLHTVRASLEDLGWADWVLSPREVQVTMCIGACPSQFRAANLHAQIKTSLHRLRPDTVPAPCCVPASYNPMVLIQRTDTGVSLQTYDDLLARDCHCI
With B2 the “Body weight reduction at 30 nmol/kg (% reduction compared to vehicle)(Day11)” value [1] was 15.5%, the “Cumulative food intake reduction at 30 nmol/kg (% reduction compared to vehicle)(Day11)” value [1] was 25.3% and the Cmax [2] was 24.7 nmol/L. The “exposure (Cmax and AUC)” value [2] was “much shorter half-lives and exposures than MLC002 and MLC004”, the “half-life (T1/2)” value [2] was “much shorter half-lives and exposures than MLC002 and MLC004” and the “AUC0-24 h” value [2] was 0.1074 µM·h. For the same molecule, the “Terminal t1/2” value [2] was 3.5 h and the “Tmax” value [2] was 1.0 h.

B3: MLC020: unconjugated GLP-1/GDF15 fusion protein (protein)
chain: HGEGTFTSDVSSYLEEQAAKEFIAWLVRGGGGQEPGQEPGQEPGQEPGQEPGQEPGQEPGQEPGAQPGAQPARQGDHCPLGPGRCCRLHTVRASLEDLGWADWVLSPREVQVTMCIGACPSQFRAANLHAQIKTSLHRLKPDTVPAPCCVPASYNPMVLIQKTDTGVSLQTYDDLLAKDCHCI
In the case of B3, the “Body weight reduction at 30 nmol/kg (% reduction compared to vehicle)(Day11)” value [1] is reported as 17.0% and the “Cumulative food intake reduction at 30 nmol/kg (% reduction compared to vehicle)(Day11)” value [1] is reported as 26.0%.

B4: MLC090: fusion polypeptide SEQ ID NO: 379 conjugated with Moiety C at 39C of Linker (conjugate)
chain: HGEGTFTSDVSSYLEEQAAKEFIAWLVRGGGGAQPGAQPGAQPGAQPGAQPGAQPGAQPGAQPGQEPGQCPGQEPGAQPGQEPGAQPGQEPGAQPGQEPGAQPGQEPGAQPARQGDHCPLGPGRCCRLHTVRASLEDLGWADWVLSPREVQVTMCIGACPSQFRAANLHAQIKTSLHRLKPDTVPAPCCVPASYNPMVLIQKTDTGVSLQTYDDLLAKDCHCI
modifications: Moiety C conjugated at linker Cys39
In the case of B4, the body weight loss [3, 6] is reported as “more body weight loss, food intake suppression and glycemic control”, the food intake suppression [3, 6] is reported as “more body weight loss, food intake suppression and glycemic control” and the glycemic control [3, 6] is reported as “more body weight loss, food intake suppression and glycemic control”. The efficacy ([3]; FIG. 8 study) was “better efficacy than Semaglutide and GDF15 derivative (MLC014)”, the “AUC0-96 h” value [4] was 1.987 µM·h and the “Terminal t1/2” value [4] was 40 h. For the same molecule, the “Tmax” value [4] was 7 h, the Cmax ([4]; read-out: Cmax (nmol/L)) was 36 nmol/L and the “Body weight reduction at 30 nmol/kg (% reduction compared to vehicle)(Day11)” value [5] was 24.5%. The “Cumulative food intake reduction at 30 nmol/kg (% reduction compared to vehicle)(Day11)” value [5] was 44.4%.

B5: MLC102: unconjugated GLP-1/GDF15 fusion protein (protein)
chain: HGEGTFTSDVSSYLEEQAAKEFIAWLVRGGGGQEPGAQPGQEPGAQPGQEPGAQPGQEPGAQPGQEPGAQPGQEPGAQPGAQPGAQPGAQPGAQPGAQPGAQPGAQPGAQPGAQPGAQPGAQPGAQPGAQPGAQPGAQPGAQPGAQPGAQPARQGDHCPLGPGRCCRLHTVRASLEDLGWADWVLSPREVQVTMCIGACPSQFRAANLHAQIKTSLHRLKPDTVPAPCCVPASYNPMVLIQKTDTGVSLQTYDDLLAKDCHCI
With B5 the “Body weight reduction at 30 nmol/kg (% reduction compared to vehicle)(Day11)” value [1] was 29.3% and the “Cumulative food intake reduction at 30 nmol/kg (% reduction compared to vehicle)(Day11)” value [1] was 36.9%.

B6: MLC019: unconjugated GLP-1/GDF15 fusion protein, linker of at least 80 residues (protein)
chain: HGEGTFTSDVSSYLEEQAAKEFIAWLVRGGGGQEPGAQPGQEPGAQPGQEPGAQPGQEPGAQPGQEPGAQPGQEPGAQPGAQPGAQPGAQPGAQPGAQPGAQPGAQPGAQPARQGDHCPLGPGRCCRLHTVRASLEDLGWADWVLSPREVQVTMCIGACPSQFRAANLHAQIKTSLHRLRPDTVPAPCCVPASYNPMVLIQRTDTGVSLQTYDDLLARDCHCI
In the case of B6, the “Body weight reduction at 30 nmol/kg (% reduction compared to vehicle)(Day11)” value [1] is reported as 23.0%, the “Cumulative food intake reduction at 30 nmol/kg (% reduction compared to vehicle)(Day11)” value [1] is reported as 48.6% and the “in vivo efficacy (food intake and body weight reduction)” value ([1]; unconjugated fusion proteins, 30 nmol/kg daily 10 days, by linker length) is reported as “the most significant results among all the tested fusion proteins”. The Cmax [2] was 23.7 nmol/L, the “exposure (Cmax and AUC)” value [2] was “much shorter half-lives and exposures than MLC002 and MLC004” and the “half-life (T1/2)” value [2] was “much shorter half-lives and exposures than MLC002 and MLC004”. For the same molecule, the “AUC0-24 h” value [2] was 0.2639 µM·h, the “Terminal t1/2” value [2] was 4.8 h and the “Tmax” value [2] was 4.0 h.

B7: MLC100: unconjugated GLP-1/GDF15 fusion protein (protein)
chain: HGEGTFTSDVSSYLEEQAAKEFIAWLVRGGGGQEPARQGDHCPLGPGRCCRLHTVRASLEDLGWADWVLSPREVQVTMCIGACPSQFRAANLHAQIKTSLHRLKPDTVPAPCCVPASYNPMVLIQKTDTGVSLQTYDDLLAKDCHCI
In the case of B7, the “Body weight reduction at 30 nmol/kg (% reduction compared to vehicle)(Day11)” value [1] is reported as 9.9% and the “Cumulative food intake reduction at 30 nmol/kg (% reduction compared to vehicle)(Day11)” value [1] is reported as 26.3%.
